From paper PMC9710867, “Molecular architecture of the Chikungunya virus replication complex” (Science Advances, 2022)

B1: CHIKV nsP2, full length (amino acids 536 to 1333) (enzyme)
chain: GIIETPRGAIKVTAQPTDHVVGEYLVLSPQTVLRSQKLSLIHALAEQVKTCTHSGRAGRYAVEAYDGRVLVPSGYAISPEDFQSLSESATMVYNEREFVNRKLHHIAMHGPALNTDEESYELVRAERTEHEYVYDVDQRRCCKKEEAAGLVLVGDLTNPPYHEFAYEGLKIRPACPYKIAVIGVFGVPGSGKSAIIKNLVTRQDLVTSGKKENCQEITTDVMRQRGLEISARTVDSLLLNGCNRPVDVLYVDEAFACHSGTLLALIALVRPRQKVVLCGDPKQCGFFNMMQMKVNYNHNICTQVYHKSISRRCTLPVTAIVSSLHYEGKMRTTNEYNKPIVVDTTGSTKPDPGDLVLTCFRGWVKQLQIDYRGHEVMTAAASQGLTRKGVYAVRQKVNENPLYASTSEHVNVLLTRTEGKLVWKTLSGDPWIKTLQNPPKGNFKATIKEWEVEHASIMAGICSHQMTFDTFQNKANVCWAKSLVPILETAGIKLNDRQWSQIIQAFKEDKAYSPEVALNEICTRMYGVDLDSGLFSKPLVSVYYADNHWDNRPGGKMFGFNPEAASILERKYPFTKGKWNINKQICVTTRRIEDFNPTTNIIPANRRLPHSLVAEHRPVKGERMEWLVNKINGHHVLLVSGCSLALPTKRVTWVAPLGVRGADYTYNLELGLPATLGRYDLVVINIHTPFRIHHYQQCVDHAMKLQMLGGDSLRLLKPGGSLLIRAYGYADRTSERVICVLGRKFRSSRALKPPCVTSNTEMFFLFSNFDNGRRNFTTHVMNNQLNAAFVGQATRAGC
notes: nonstructural protein 2 (nsP2) of chikungunya virus, full length, amino acids 536 to 1333 of the nonstructural polyprotein; Contact residues in the text (R56, R59, Y60, R101; nsP2h 1 to 465) count on nsP2 itself; The His6-SUMO tag is called cleavable; Only the helicase region is built in the cryo-EM model; also called nsP2 helicase-protease
B2: ONNV nsP4, full length (amino acids 1904 to 2514) (enzyme)
chain: IFSSDTGQGHLQQKSVRQTTLPVNIVEEVHEEKCYPPKLDEIKEQLLLKRLQESASTANRSRYQSRKVENMKATIIHRLKEGCRLYLASDTPRVPSYRITYPAPVYSPSISIKLNNPETAVAVCNEFLARNYPTVASYQVTDEYDAYLDMVDGSESCLDRATFNPSKLRSYPKQHSYHAPTIRSAVPSPFQNTLQNVLAAATKRNCNVTQMRELPTMDSAVFNVECFKKYACNQEYWREFASSPIRVTTENLTMYVTKLKGPKAAALFAKTHNLLPLQEVPMDRFTMDMKRDVKVTPGTKHTEERPKVQVIQAAEPLATAYLCGIHRELVRRLNAVLLPNVHTLFDMSAEDFDAIISTHFKPGDAVLETDIASFDKSQDDSLALTAMMLLEDLGVDQPILDLIEAAFGEISSCHLPTGTRFKFGAMMKSGMFLTLFVNTLLNITIASRVLEERLTTSACAAFIGDDNIIHGVVSDALMAARCATWMNMEVKIIDAVVSEKAPYFCGGFILHDTVTGTSCRVADPLKRLFKLGKPLAAGDEQDEDRRRALADEVTRWQRTGLITELEKAVYSRYEVQGITAVITSMATFASSKENFKKLRGPVVTLYGGPK
notes: Contact residues in the text (D219, E392, D393, D402, E405; NTD 1 to 105) count on nsP4 itself; also called o'nyong-nyong virus nsP4; nsP4 RdRp
B3: CHIKV nsP1 mutant (H37A; amino acids 1 to 535) with internal StrepII-3XFLAG (enzyme)
chain: MDPVYVDIDADSAFLKALQRAYPMFEVEPRQVTPNDAANARAFSHLAIKLIEQEIDPDSTILDIGSAPARRMMSDRKYHCVCPMRSAEDPERLANYARKLASAAGKVLDRNISGKIGDLQAVMAVPDTETPTFCLHTDVSCRQRADVAIYQDVYAVHAPTSLYHQAIKGVRLAYWVGFDTTPFMYNAMAGAYPSYSTNWADEQVLKAKNIGLCSTDLTEGRRGKLSIMRGKKLEPCDRVLFSVGSTLYPESRKLLKSWHLPSVFHLKGKLSFTCRCDTVVSCEGYVVKRITMSPGLYGKTTGYAVTHHADGFLMCKTTDTVDGERVSFSVCTYVPATICDQMTGILATEVTPEDAQKLLVGLNQRIVVNGRTQRNTNTMKNYMIPVVAQAFSKWAKECRKDMEDEKLLGVRERTLTCCCLWAFKKQKTHTVYKRPDTQSIQKVQAEFDSFVVPSLWSSGLSIPLRTRIKWLLSKVPKTDLTPYSGDAQEARDAEKEAEEEREAELTLEALPPLQAAQEDVQVEIDVEQLEDRAGA
notes: nonstructural protein 1 (nsP1) of chikungunya virus, amino acids 1 to 535 of the nonstructural polyprotein; also called nsP1 ring; nsP1 dodecameric ring; not shown: StrepII, internal (after residue 516), kept; copies: 12

How the values were obtained:
Assay in all cases: cryo-EM structure; single-particle cryo-EM of the reconstituted nsP1 + 2 + 4 RC core mixed with T2 RNA and NTP in 1x buffer Z at 1:10:100 molar ratio; C1, 2.8 Å
[1] = biological target: B2; conditions: both partners purified
[2] = biological target: B3; conditions: both partners purified
[3] = biological target: the molecule itself

B1
stoichiometry N [1]: 1 nsP2 per nsP4

B2
stoichiometry N [2]: 12 nsP1 per nsP4

B3
stoichiometry N [3]: 12
